Publication PMC6942403, “RNA sequencing reveals an additional Crz1-binding motif in promoters of its target genes in the human fungal pathogen Candida albicans”

T1: His6-CaCrz1 (Candida albicans, UniProt Q5A4H5 1-731)
T1 sequence: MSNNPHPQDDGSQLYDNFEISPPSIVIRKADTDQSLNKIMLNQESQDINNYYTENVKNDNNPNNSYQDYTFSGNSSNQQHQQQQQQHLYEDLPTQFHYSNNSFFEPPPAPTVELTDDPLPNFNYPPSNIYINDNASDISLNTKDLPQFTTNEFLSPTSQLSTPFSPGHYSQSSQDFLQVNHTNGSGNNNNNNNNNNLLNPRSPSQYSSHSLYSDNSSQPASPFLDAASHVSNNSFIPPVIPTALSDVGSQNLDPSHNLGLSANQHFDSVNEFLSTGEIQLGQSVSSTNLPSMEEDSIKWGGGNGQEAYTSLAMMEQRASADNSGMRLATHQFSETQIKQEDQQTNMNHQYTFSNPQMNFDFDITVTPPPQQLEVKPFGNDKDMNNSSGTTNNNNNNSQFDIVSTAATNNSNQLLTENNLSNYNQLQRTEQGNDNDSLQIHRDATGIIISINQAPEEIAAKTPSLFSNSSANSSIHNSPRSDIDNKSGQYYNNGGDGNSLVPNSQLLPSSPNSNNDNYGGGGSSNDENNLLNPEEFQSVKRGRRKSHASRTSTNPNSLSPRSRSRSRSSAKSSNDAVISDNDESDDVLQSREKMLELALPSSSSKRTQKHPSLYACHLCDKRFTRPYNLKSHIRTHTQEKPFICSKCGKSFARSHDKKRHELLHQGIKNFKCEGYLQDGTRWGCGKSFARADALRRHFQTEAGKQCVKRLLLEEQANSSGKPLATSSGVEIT


What was measured:
[1] = target: T1, His6-CaCrz1; experiment: EMSA; 1 ug protein; EMSA with DIG-labelled probes and 1 ug His6-Crz1; buffer, salt, pH and temperature not given in the material; conditions: protein: recombinant; tags: N-terminal His6 (pET28a(+)); label: DIG; blunt
[2] = target: T1, His6-CaCrz1; experiment: EMSA; 1 ug protein; abolished by unlabelled Probe 1; EMSA with DIG-labelled probes and 1 ug His6-Crz1; buffer, salt, pH and temperature not given in the material; conditions: protein: recombinant, tags: N-terminal His6 (pET28a(+)), label: DIG
[3] = target: T1, His6-CaCrz1; experiment: EMSA; 1 ug protein; abolished by unlabelled Probe 2; EMSA with DIG-labelled probes and 1 ug His6-Crz1; buffer, salt, pH and temperature not given in the material; conditions: protein: recombinant; tags: N-terminal His6 (pET28a(+)); label: DIG

Row | Binder | binding result [1] | further results
1 | CRZ1 Probe 4 (dsDNA) DNA 1: AACAATTTAATCTGGTCATTTCATTTCCCCTAACAGCATCTTTCCAAGTT DNA 2: AACTTGGAAAGATGCTGTTAGGGGAAATGAAATGACCAGATTAAATTGTT | no binding | –
2 | CRZ1 Probe 3 (dsDNA) DNA 1: TTTCAACTTCCATCATATTTACCACAATTGGATTAACTTGGTTAT DNA 2: ATAACCAAGTTAATCCAATTGTGGTAAATATGATGGAAGTTGAAA | no binding | –
3 | CRZ1 Probe 2 (dsDNA) DNA 1: ATTAGAATAGAATATTATCACAGACCCCCCCAATATCTATTTATCAACCT DNA 2: AGGTTGATAAATAGATATTGGGGGGGTCTGTGATAATATTCTATTCTAAT | no binding | –
4 | CRZ1 Probe 1 (dsDNA) DNA 1: TGTGTGTGTGTGTGACAGTCCAGTCCCTCAACTAATTTAAAACAGTTTTT DNA 2: AAAAACTGTTTTAAATTAGTTGAGGGACTGGACTGTCACACACACACACA | – | binding result ([2]; blunt): binds
5 | UTR2 Probe 2 EMSA_UTR2_F/R(M) (dsDNA) DNA 1: GGCTTAAATTCTTGAGTTGTGGGCTTTGAATTTCTTTCATTTCAT DNA 2: ATGAAATGAAAGAAATTCAAAGCCCACAACTCAAGAATTTAAGCC | – | binding result [3]: binds
6 | UTR2 Probe 1 EMSA_UTR2_F/R(H) (dsDNA) DNA 1: CTTTCATTTCATTTCTTTTCTCAACGCCTCAAAATTTGATTCTTAAAATT DNA 2: AATTTTAAGAATCAAATTTTGAGGCGTTGAGAAAAGAAATGAAATGAAAG | – | binding result [2]: binds
